# Laboratory results as given in US20150166621A1 (Hoffmann-La Roche, published 2015).
# Square brackets hold non-standard residues; d marks the D form. Nle = CCCC[C@H](N)C(=O)O; Mamp = not defined here; Nva = CCC[C@H](N)C(=O)O
# Target: T1, Human eIF4E (aa 28-217) with a C-terminal His tag (human, UniProt P06730 28-217)
# T1 construct: also called HH-eIF4E; eukaryotic initiation factor 4E
# Test: TR-FRET competition vs biotin-4G2 peptide on HH-eIF4E
# Protocol: (§1) Test peptides (1.6 mM stock in DMSO) were diluted 3 fold in series in DMSO and solutions were diluted 4 fold in Assay Buffer (50 mM NaPi, pH 6.5, 50 mM KCl, 1 mM DTT, 0.004% NP40 and 0.5 mg/ml gammaglobulin). […] The samples were incubated at room temperature for 20 minutes.
# (§2) IC50 values were calculated using Condoseo software (Genedata AG, Basel, Switzerland).
# T1 sequence (P06730 other isoform, or with tags, fused parts or gaps limits assumed): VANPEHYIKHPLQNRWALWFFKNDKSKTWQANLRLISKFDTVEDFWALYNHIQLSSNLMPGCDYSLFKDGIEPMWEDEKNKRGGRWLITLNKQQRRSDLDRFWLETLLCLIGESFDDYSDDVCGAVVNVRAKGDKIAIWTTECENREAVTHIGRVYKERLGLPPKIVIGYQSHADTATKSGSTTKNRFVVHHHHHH
row,Binder,IC50 [µM]
1,Ac-QYDREFLLDFQFMPA-NH2 [peptide of SEQ ID NO: 81],8.68
2,Ac-KQYDREFLLDF-NH2 [peptide of SEQ ID NO: 56],3.44
3,Ac-KQYDREFLLDFQFMP[dA]-NH2 [peptide of SEQ ID NO: 64],8.69
4,Ac-KQYDREFLLDFQF[dM]PA-NH2 [peptide of SEQ ID NO: 66],7.75
5,Ac-YDREFLLDFQF[Nle]-NH2 (SMILES CCCC[C@H](NC(=O)[C@H](Cc1ccccc1)NC(=O)[C@H](CCC(N)=O)NC(=O)[C@H](Cc1ccccc1)NC(=O)[C@H](CC(=O)O)NC(=O)[C@H](CC(C)C)NC(=O)[C@H](CC(C)C)NC(=O)[C@H](Cc1ccccc1)NC(=O)[C@H](CCC(=O)O)NC(=O)[C@H](CCCNC(=N)N)NC(=O)[C@H](CC(=O)O)NC(=O)[C@H](Cc1ccc(O)cc1)NC(C)=O)C(N)=O) [peptide of SEQ ID NO: 70],3.39
6,Ac-YNREFLLDFQF[Nle]-NH2 (SMILES CCCC[C@H](NC(=O)[C@H](Cc1ccccc1)NC(=O)[C@H](CCC(N)=O)NC(=O)[C@H](Cc1ccccc1)NC(=O)[C@H](CC(=O)O)NC(=O)[C@H](CC(C)C)NC(=O)[C@H](CC(C)C)NC(=O)[C@H](Cc1ccccc1)NC(=O)[C@H](CCC(=O)O)NC(=O)[C@H](CCCNC(=N)N)NC(=O)[C@H](CC(N)=O)NC(=O)[C@H](Cc1ccc(O)cc1)NC(C)=O)C(N)=O) [peptide of SEQ ID NO: 74],10.9
7,YNRQFLLDFQFL (N-terminal Ac; Nle at 12; C-terminal NH2) [peptide of SEQ ID NO: 75],11
8,YDRQFLLDFQFL (N-terminal Ac; Nle at 12; C-terminal NH2) [peptide of SEQ ID NO: 71],11
9,Ac-YDREFLLDFQFM-NH2 [peptide of SEQ ID NO: 68],13.1
10,Ac-KQYDREFLLDFQF-NH2 [peptide of SEQ ID NO: 55],14.6
11,Ac-Y[Mamp]LLAFQF[Nle]-NH2 (reading uncertain) [peptide of SEQ ID NO: 77],5.35
12,Ac-[dK]QYDREFLLDFQFMPA-NH2 [peptide of SEQ ID NO: 83],1.67
13,Ac-KQYDREFLLDFQFM[dP]A-NH2 [peptide of SEQ ID NO: 65],7.69
14,Ac-Y[Nva]LLAFQF[Nle]-NH2 (SMILES CCCC[C@H](NC(=O)[C@H](Cc1ccccc1)NC(=O)[C@H](CCC(N)=O)NC(=O)[C@H](Cc1ccccc1)NC(=O)[C@H](C)NC(=O)[C@H](CC(C)C)NC(=O)[C@H](CC(C)C)NC(=O)[C@H](CCC)NC(=O)[C@H](Cc1ccc(O)cc1)NC(C)=O)C(N)=O) [peptide of SEQ ID NO: 78],6.63
15,Ac-KQYDREFLLDFQFM-NH2 [peptide of SEQ ID NO: 54],8.84
16,Ac-KQYDREFLLDFQFMPA-NH2 [peptide of SEQ ID NO: 52],10.5

row,Binder,IC50 [µM]
1,Ac-KQYDREFLLAFQFMPA-NH2 [peptide of SEQ ID NO: 59],1.42
2,Ac-KQYDREFLLDFQFAPA-NH2 [peptide of SEQ ID NO: 58],11.3
3,Ac-AQYDREFLLDFQFMPA-NH2 [peptide of SEQ ID NO: 63],12.3
4,Ac-KAYDREFLLDFQFMPA-NH2 [peptide of SEQ ID NO: 62],13.6
5,Ac-KQYAREFLLDFQFMPA-NH2 [peptide of SEQ ID NO: 61],11.8
6,Ac-KQYDREFLLDFQFMAA-NH2 [peptide of SEQ ID NO: 57],6.96
7,Ac-KQYDRAFLLDFQFMPA-NH2 [peptide of SEQ ID NO: 60],9.26
8,Ac-YDREFLLDFQFMPA-NH2 [peptide of SEQ ID NO: 82],7.52
9,Ac-KRYDREFLLAFQF[Nle]-NH2 (SMILES CCCC[C@H](NC(=O)[C@H](Cc1ccccc1)NC(=O)[C@H](CCC(N)=O)NC(=O)[C@H](Cc1ccccc1)NC(=O)[C@H](C)NC(=O)[C@H](CC(C)C)NC(=O)[C@H](CC(C)C)NC(=O)[C@H](Cc1ccccc1)NC(=O)[C@H](CCC(=O)O)NC(=O)[C@H](CCCNC(=N)N)NC(=O)[C@H](CC(=O)O)NC(=O)[C@H](Cc1ccc(O)cc1)NC(=O)[C@H](CCCNC(=N)N)NC(=O)[C@H](CCCCN)NC(C)=O)C(N)=O) [peptide of SEQ ID NO: 80],0.643
10,Ac-KRFDREFLLAFQF[Nle]-NH2 (SMILES CCCC[C@H](NC(=O)[C@H](Cc1ccccc1)NC(=O)[C@H](CCC(N)=O)NC(=O)[C@H](Cc1ccccc1)NC(=O)[C@H](C)NC(=O)[C@H](CC(C)C)NC(=O)[C@H](CC(C)C)NC(=O)[C@H](Cc1ccccc1)NC(=O)[C@H](CCC(=O)O)NC(=O)[C@H](CCCNC(=N)N)NC(=O)[C@H](CC(=O)O)NC(=O)[C@H](Cc1ccccc1)NC(=O)[C@H](CCCNC(=N)N)NC(=O)[C@H](CCCCN)NC(C)=O)C(N)=O) [peptide of SEQ ID NO: 84],4.07
11,Ac-KQYDREFLLDFQFMP-NH2 [peptide of SEQ ID NO: 53],7.46
12,Ac-KQYDREFLLDFQ[dF]MPA-NH2 [peptide of SEQ ID NO: 67],13.7
13,Ac-YDREFLLDFQF-NH2 [peptide of SEQ ID NO: 69],12.4
14,Ac-KRKRFDREFLLAFQF[Nle]-NH2 (SMILES CCCC[C@H](NC(=O)[C@H](Cc1ccccc1)NC(=O)[C@H](CCC(N)=O)NC(=O)[C@H](Cc1ccccc1)NC(=O)[C@H](C)NC(=O)[C@H](CC(C)C)NC(=O)[C@H](CC(C)C)NC(=O)[C@H](Cc1ccccc1)NC(=O)[C@H](CCC(=O)O)NC(=O)[C@H](CCCNC(=N)N)NC(=O)[C@H](CC(=O)O)NC(=O)[C@H](Cc1ccccc1)NC(=O)[C@H](CCCNC(=N)N)NC(=O)[C@H](CCCCN)NC(=O)[C@H](CCCNC(=N)N)NC(=O)[C@H](CCCCN)NC(C)=O)C(N)=O) [peptide of SEQ ID NO: 85],0.32
15,Ac-Y[Mamb]LLAFQF[Nle]-NH2 [peptide of SEQ ID NO: 76],12
16,Ac-F[5Ava]LLAFQF[Nle]-NH2 [peptide of SEQ ID NO: 79],9.34

# Target: T1, Human eIF4E (aa 28-217) with a …
# Test: as above
# Remark: another data set of the same source
# Protocol: as §1, §2
row,Binder,IC50 [µM]
1,Ac-KRYDREFLLAFQF[Nle]RRLRQRRRLRRERVRA-NH2 (SMILES CCCC[C@H](NC(=O)[C@H](Cc1ccccc1)NC(=O)[C@H](CCC(N)=O)NC(=O)[C@H](Cc1ccccc1)NC(=O)[C@H](C)NC(=O)[C@H](CC(C)C)NC(=O)[C@H](CC(C)C)NC(=O)[C@H](Cc1ccccc1)NC(=O)[C@H](CCC(=O)O)NC(=O)[C@H](CCCNC(=N)N)NC(=O)[C@H](CC(=O)O)NC(=O)[C@H](Cc1ccc(O)cc1)NC(=O)[C@H](CCCNC(=N)N)NC(=O)[C@H](CCCCN)NC(C)=O)C(=O)N[C@@H](CCCNC(=N)N)C(=O)N[C@@H](CCCNC(=N)N)C(=O)N[C@@H](CC(C)C)C(=O)N[C@@H](CCCNC(=N)N)C(=O)N[C@@H](CCC(N)=O)C(=O)N[C@@H](CCCNC(=N)N)C(=O)N[C@@H](CCCNC(=N)N)C(=O)N[C@@H](CCCNC(=N)N)C(=O)N[C@@H](CC(C)C)C(=O)N[C@@H](CCCNC(=N)N)C(=O)N[C@@H](CCCNC(=N)N)C(=O)N[C@@H](CCC(=O)O)C(=O)N[C@@H](CCCNC(=N)N)C(=O)N[C@H](C(=O)N[C@@H](CCCNC(=N)N)C(=O)N[C@@H](C)C(N)=O)C(C)C) [peptide of SEQ ID NO: 22],0.198
2,Ac-KRYDREFLLAFQF[Nle]VYDLGLRRLRQRRRLRR-NH2 (SMILES CCCC[C@H](NC(=O)[C@H](Cc1ccccc1)NC(=O)[C@H](CCC(N)=O)NC(=O)[C@H](Cc1ccccc1)NC(=O)[C@H](C)NC(=O)[C@H](CC(C)C)NC(=O)[C@H](CC(C)C)NC(=O)[C@H](Cc1ccccc1)NC(=O)[C@H](CCC(=O)O)NC(=O)[C@H](CCCNC(=N)N)NC(=O)[C@H](CC(=O)O)NC(=O)[C@H](Cc1ccc(O)cc1)NC(=O)[C@H](CCCNC(=N)N)NC(=O)[C@H](CCCCN)NC(C)=O)C(=O)N[C@H](C(=O)N[C@@H](Cc1ccc(O)cc1)C(=O)N[C@@H](CC(=O)O)C(=O)N[C@@H](CC(C)C)C(=O)NCC(=O)N[C@@H](CC(C)C)C(=O)N[C@@H](CCCNC(=N)N)C(=O)N[C@@H](CCCNC(=N)N)C(=O)N[C@@H](CC(C)C)C(=O)N[C@@H](CCCNC(=N)N)C(=O)N[C@@H](CCC(N)=O)C(=O)N[C@@H](CCCNC(=N)N)C(=O)N[C@@H](CCCNC(=N)N)C(=O)N[C@@H](CCCNC(=N)N)C(=O)N[C@@H](CC(C)C)C(=O)N[C@@H](CCCNC(=N)N)C(=O)N[C@@H](CCCNC(=N)N)C(N)=O)C(C)C) [peptide of SEQ ID NO: 7],0.21
